# In publication PMC5584928:
# Substitutions are numbered along the chain they refer to. In names and notes the source's numbering stands.
# T1: integrin αvβ3 on β3-CHO cells (recombinant hamster αv/human β3 hybrid), P05106
# T1 chain: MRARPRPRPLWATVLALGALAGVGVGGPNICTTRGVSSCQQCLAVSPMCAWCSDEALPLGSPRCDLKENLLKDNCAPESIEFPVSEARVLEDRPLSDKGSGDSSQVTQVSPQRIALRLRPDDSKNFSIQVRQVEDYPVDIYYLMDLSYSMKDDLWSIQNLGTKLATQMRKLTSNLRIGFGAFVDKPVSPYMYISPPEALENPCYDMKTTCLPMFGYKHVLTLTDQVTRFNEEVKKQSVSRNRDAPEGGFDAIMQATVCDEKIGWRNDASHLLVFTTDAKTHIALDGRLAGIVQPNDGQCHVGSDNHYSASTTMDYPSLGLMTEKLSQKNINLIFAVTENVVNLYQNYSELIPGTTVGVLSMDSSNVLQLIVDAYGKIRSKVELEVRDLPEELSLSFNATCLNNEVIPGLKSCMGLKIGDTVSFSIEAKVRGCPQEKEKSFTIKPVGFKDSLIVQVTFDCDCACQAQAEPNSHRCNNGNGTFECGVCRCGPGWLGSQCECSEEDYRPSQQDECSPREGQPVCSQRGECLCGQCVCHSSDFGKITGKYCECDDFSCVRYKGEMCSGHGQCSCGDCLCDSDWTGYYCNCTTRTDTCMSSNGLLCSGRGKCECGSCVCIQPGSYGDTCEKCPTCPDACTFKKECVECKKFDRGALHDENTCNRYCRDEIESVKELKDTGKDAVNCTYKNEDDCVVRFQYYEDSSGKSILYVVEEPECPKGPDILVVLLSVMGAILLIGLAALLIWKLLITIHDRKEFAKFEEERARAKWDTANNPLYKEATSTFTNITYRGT
# B1: WT IGF2 (insulin-like growth factor-2) R24E; R34E; R37E; R38E (protein)
# chain: AYRPSETLCGGELVDTLQFVCGDEGFYFSRPASEVSEESRGIVEECCFRSCDLALLETYCATPAKSE
# B2: WT IGF2 (insulin-like growth factor-2) R34E; R37E; R38E (protein)
# chain: B1 chain with E24R
# B3: WT IGF2 (insulin-like growth factor-2) R24E; R37E; R38E (protein)
# chain: B1 chain with E34R
# B4: WT IGF2 (insulin-like growth factor-2) R30E; R37E; R38E (protein)
# chain: B1 chain with E24R, R30E, E34R
# Biological target: T1, integrin αvβ3 on β3-CHO cells …
# Experiment: cell adhesion assay (β3-CHO cells on coated IGF2)
# Conditions: chain shown with the change; 10 µg/ml IGF2; Tyrode-HEPES buffer, 1 mM Mg2+; parent: est. 43; read off a plot
row,Binder,response [% Adhesion]
1,B1,15
2,B2,15
3,B3,16
4,B4,25

# Same assay, conditions: chain shown with the change; IGF2 coating 5 µg/ml; Tyrode-HEPES buffer, 1 mM Mg2+; parent: est. 30; read off a plot
row,Binder,response [% Adhesion]
1,B2,6.5
2,B3,9.5
3,B4,20

# Same assay, conditions: chain shown with the change; IGF2 coating 10 µg/ml; Tyrode-HEPES buffer, 1 mM Mg2+; parent: est. 43; read off a plot
row,Binder,response [% Adhesion]
1,B2,16
2,B3,16
3,B4,25

# Same assay, conditions: chain shown with the change; IGF2 coating 20 µg/ml; Tyrode-HEPES buffer, 1 mM Mg2+; parent: est. 56; read off a plot
row,Binder,response [% Adhesion]
1,B2,15
2,B3,17
3,B4,36
